The target in this assay is 人TROP2 on cells (表达TROP2的CHO细胞系; MCF, MDA-MB-231, MDA-MB-468, HCC1395 breast cancer cells) (human) (UniProt P09758). Briefly: flow cytometry, scFv-Fc on CHO cells expressing TROP2. A general note: Flow cytometry measures light scatter and fluorescence of single cells or particles in a stream.
Sequence of UniProt P09758 (P09758 27-323): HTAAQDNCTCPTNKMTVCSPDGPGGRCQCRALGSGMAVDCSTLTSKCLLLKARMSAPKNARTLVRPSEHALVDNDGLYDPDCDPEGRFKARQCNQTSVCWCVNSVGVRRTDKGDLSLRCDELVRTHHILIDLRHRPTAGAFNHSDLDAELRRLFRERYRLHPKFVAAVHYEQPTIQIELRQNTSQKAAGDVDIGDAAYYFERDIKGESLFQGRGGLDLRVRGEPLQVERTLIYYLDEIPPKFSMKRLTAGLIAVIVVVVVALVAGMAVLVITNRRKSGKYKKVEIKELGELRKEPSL

B1: 1F7 scFv-Fc蛋白 (from pFH-1F7; scFv fused to human IgG4 Fc) (Fc fusion, not shown: a dimerising Fc or GST)
chain: QVQLVQSGAEVKKPGASVKVSCKASGYTFTSYGINWVRQATGRGLEWMGWMNPNSGNTGYAQKFQGRVTITADESTSTAYMELSSLRSEDTAVYYCARPNTGGDGAFDIWGQGTMVTVSSGGSSRSSSSGGGGSGGGGDIQLTQSPSSVSASVGDRVTITCRASQGISSWLAWYRQKPGKAPKLLIYAASSLQSGVPSRFSGSGSGTDFTLTISSLQPEDFATYYCQQANSFPITFGQGTRLEIK
The molecule B1 registered a 阳性百分数 of 89.3%.

The values above are taken from patent CN115536747A.
